Measured values reported in patent US20150118213A1 (OMRIX BIOPHARMACEUTICALS, published 2015).
Bridges are numbered along the chain shown (N, C = ends). Where no end group is shown, it is not given here.

T1: Fluorescein-labeled cyclic gamma-loop derived peptide (disulfide 1-12; also: fluorescein label, site not given here)
T1 construct: also called fluorescent gamma loop peptide
T1 peptide: CKETWTANVGKC

B1: Thr_069 (peptide)
peptide: WCYVAGKPGDFGYCD
notes: 15-mer from the thrombin derived peptide array; also called thrombin derived peptide Thr-069
B2: Rnd_inter_316 (peptide)
peptide: LGNKKFVSGSRFVST
notes: 15-mer from the random peptide array; also called Rnd316; Rnd 316
B3: Rnd_inter_155 (peptide)
peptide: SHNQRFVTYLGSKLG
notes: 15-mer from the random peptide array; also called Rnd155; Random2
B4: Thr_111 (peptide)
peptide: ISMLEKIYIHPRYNW
notes: 15-mer from the thrombin derived peptide array
B5: Thr_031_CS (peptide)
peptide: NITRSGIESQLWRSR
notes: Thrombin derived 15-mer in which Cysteine residues have been replaced by Serine
B6: Thr_032_CS (peptide)
peptide: SGIESQLWRSRYPHK
notes: as for B5
B7: Thr_136_CS (peptide)
peptide: RIRITDNMFSAGYKP
notes: as for B5

Key:
[1] = target: thrombin (aqueous liquid purified and concentrated thrombin) (UniProt P00734 44-622; P00734 44-622); assay: cell-based or functional assay
[2] = target: T1, Fluorescein-labeled cyclic gamma-loop …; assay: peptide microarray, immobilised 15-mer probed with fluorescein-labelled cyclic gamma-loop peptide; fluorescence scale 0-65535
From the text: Peptides were synthesized using SPOT synthesis (Wenschuh H, et al. (2000). Coherent membrane supports for parallel microsynthesis and screening of bioactive peptides. Biopolymers 55:188-206) and were chemoselectively immobilized onto functionalized glass slides as described (Panse S, et al. (2004) Profiling of generic anti-phosphopeptide antibodies and kinases with peptide microarrays using radioactive and fluorescence-based assays. Mol Divers 8:291-299.2.). Each peptide was printed in triplicates onto the microarray. For binding studies, 100 ng of purified thrombin (Omrix biopharmaceuticals) were directly labeled with DyLight 650 (DyLight® Microscale Antibody Labeling Kits, Thermo Scientific, #84536) and diluted in blocking buffer (SuperBlockT20 (TBS) Blocking Buffer, Thermo Scientific, #37536). The microarrays were incubated with 10 μg/ml DyLight 650-Thrombin or a Fluorescein-labeled cyclic gamma-loop derived peptide for one hour at 30° C. in a HS4800 microarray processing station (Tecan) (Masch A, et al., (2010) Antibody signatures defined by high-content peptide microarray analysis. Methods Mol Biol 669:161-172).
Microarrays were washed with 0.1% Tween-20 in 1×TBS followed by 0.05% Tween-20 in 0.1×SSC and dried in a stream of nitrogen. Each microarray was scanned using GenePix Autoloader 4200AL (Molecular Devices, Pixel size: 10 μm). Signal intensities were evaluated using spot recognition software Genepix Pro 7.0 analysis software (Molecular Devices). For each peptide, the mean signal intensity of the three triplicates was extracted. Further evaluation and representation of results was performed using the statistical computing and graphics software R (Version 2.11.1, www.r-project.org).
One array included peptides based on the thrombin sequence. Any peptide isolated from this library may reflect possible regions in the thrombin protein that may interact with the gamma loop. […] The fluorescence for the strongest binding candidates (hits) was quantified on an arbitrary scale of 0-65535 (2¹⁶). Thrombin activity was assessed as described in Example 1.

Binder | inhibition of thrombin clotting activity at 0.5 mM peptide [1] [%] | Binding intensity of gamma loop [2] [arbitrary units]
CKETWTANVGKC (disulfide 1-12) [cyclic gamma peptide] | ~7 | –
KETWTANVGK [linear gamma peptide (SEQ ID NO:1)] | ~20 | –
B1 | – | 50600
B2 | – | 26600
B3 | – | 19500
B4 | – | 32800
B5 | – | 40800
B6 | – | 35100
B7 | – | 25300
